Experimental data: patent publication US20250074980A1 (BRIGHAM AND WOMEN S HOSPITAL, published 2025)
Where a chain is given by its changes, count along the chain named. Names may count otherwise.

T1: CEACAM1 on transfected HeLa cells (human, UniProt P13688 35-526)
T1 construct: also called HeLa-CEACAM1; HeLa C1
T1 sequence: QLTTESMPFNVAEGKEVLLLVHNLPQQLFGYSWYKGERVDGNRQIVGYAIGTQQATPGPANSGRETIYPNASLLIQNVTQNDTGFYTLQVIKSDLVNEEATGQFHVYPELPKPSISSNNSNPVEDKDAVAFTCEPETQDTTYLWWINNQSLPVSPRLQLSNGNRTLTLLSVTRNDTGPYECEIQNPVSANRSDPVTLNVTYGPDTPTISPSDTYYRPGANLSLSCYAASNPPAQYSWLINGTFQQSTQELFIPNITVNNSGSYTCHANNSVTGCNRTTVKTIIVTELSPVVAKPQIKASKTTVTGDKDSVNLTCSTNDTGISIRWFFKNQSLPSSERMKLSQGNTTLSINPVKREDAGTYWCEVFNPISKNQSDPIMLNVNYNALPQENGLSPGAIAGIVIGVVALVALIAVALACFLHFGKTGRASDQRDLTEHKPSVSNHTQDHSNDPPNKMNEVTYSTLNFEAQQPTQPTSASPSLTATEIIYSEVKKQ

T2: CEACAM5 on transfected HeLa cells (human, UniProt P06731 35-685)
T2 construct: whole, on cells; also called HeLa-CEACAM5; HeLa C5
T2 sequence (looked up): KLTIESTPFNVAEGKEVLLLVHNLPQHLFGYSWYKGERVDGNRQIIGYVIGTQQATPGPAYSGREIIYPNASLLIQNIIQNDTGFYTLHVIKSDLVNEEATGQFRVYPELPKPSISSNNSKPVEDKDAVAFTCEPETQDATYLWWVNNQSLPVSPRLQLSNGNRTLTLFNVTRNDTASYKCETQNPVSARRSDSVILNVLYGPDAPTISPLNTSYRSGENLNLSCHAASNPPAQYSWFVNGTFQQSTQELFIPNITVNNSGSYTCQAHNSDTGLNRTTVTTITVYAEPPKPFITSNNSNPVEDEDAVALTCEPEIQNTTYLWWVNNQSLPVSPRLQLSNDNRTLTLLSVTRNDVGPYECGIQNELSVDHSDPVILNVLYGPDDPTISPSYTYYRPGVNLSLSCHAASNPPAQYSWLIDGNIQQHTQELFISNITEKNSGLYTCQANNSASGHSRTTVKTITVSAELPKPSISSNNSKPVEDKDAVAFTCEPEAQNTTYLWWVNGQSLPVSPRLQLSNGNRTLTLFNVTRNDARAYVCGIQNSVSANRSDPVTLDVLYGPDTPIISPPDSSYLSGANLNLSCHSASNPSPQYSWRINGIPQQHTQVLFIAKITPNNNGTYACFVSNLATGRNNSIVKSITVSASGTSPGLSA

T3: CEACAM6 on transfected HeLa cells (human, UniProt P40199 35-320)
T3 construct: whole, on cells; also called HeLa-CEACAM6; HeLa C6
T3 sequence (looked up): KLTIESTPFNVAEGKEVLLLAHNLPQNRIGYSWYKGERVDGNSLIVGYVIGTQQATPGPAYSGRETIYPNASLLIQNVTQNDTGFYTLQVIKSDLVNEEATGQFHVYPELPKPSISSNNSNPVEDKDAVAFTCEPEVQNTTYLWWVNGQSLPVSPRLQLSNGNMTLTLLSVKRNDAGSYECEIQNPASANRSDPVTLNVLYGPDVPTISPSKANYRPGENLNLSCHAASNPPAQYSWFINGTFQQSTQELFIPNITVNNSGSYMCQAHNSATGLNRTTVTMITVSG

T4: His-tagged CEACAM1 (human, UniProt P13688 35-428)
T4 construct: 45 kDa SPR analyte; also called CEACAM1-HIS; CEACAM1 analyte
T4 sequence: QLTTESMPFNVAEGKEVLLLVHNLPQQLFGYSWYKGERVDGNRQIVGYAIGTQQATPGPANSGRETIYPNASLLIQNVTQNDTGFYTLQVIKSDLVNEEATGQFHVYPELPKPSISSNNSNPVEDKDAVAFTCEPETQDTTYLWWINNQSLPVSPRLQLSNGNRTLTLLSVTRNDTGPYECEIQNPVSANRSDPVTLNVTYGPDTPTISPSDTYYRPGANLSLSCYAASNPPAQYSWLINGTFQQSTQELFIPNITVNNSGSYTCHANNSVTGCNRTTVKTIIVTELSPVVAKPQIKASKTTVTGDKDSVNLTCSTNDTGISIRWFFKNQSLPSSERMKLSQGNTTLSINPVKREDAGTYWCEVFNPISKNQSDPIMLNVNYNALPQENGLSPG

T5: CEACAM3 on transfected HeLa cells (human, UniProt P40198 35-252)
T5 construct: whole, on cells; also called HeLa-CEACAM3; HeLa C3
T5 sequence (looked up): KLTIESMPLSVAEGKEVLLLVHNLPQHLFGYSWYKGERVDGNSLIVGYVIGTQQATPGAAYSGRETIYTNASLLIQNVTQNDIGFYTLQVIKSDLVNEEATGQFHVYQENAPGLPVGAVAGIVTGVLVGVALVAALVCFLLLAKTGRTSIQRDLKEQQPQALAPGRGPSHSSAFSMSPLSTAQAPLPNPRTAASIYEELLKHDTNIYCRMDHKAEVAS

T6: GST-CEACAM1 (human, UniProt P13688 35-141, limits assumed)
T6 construct: also called human CEACAM1-GST protein
T6 sequence: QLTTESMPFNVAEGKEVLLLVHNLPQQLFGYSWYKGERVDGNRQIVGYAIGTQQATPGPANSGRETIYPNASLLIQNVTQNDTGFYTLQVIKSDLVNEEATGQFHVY

B1: 9B3_9E5/CP08E05 (antibody, IgG4, V domains shown)
VH: EVQLLESGGGLVQPGGSLRLSCAASGFTFNAHAISWVRQAPGKGLEWVATISSGGTYTYYPDSVKGRFTISRDNSKNTLYLQMNSLKAEDTAMYYCARHGFDYDAAWFAYWGQGTLVTVSS
VL: EIVLTQSPATLSLSPGERATLSCRANSAVSYMYWYQQKPGQAPRPWIYLTSNRATGVPARFSGSGSGTDYTLTISSLEPEDFAVYYCQQWTTNPPTFGQGTKLEIK
notes: IgG4 (S241P), kappa
B2: CP09C02/CP08E05 (antibody, IgG4, V domains shown)
VH: B1 VH with G26E, N30S, A31D, I34M
VL: B1 VL
notes: IgG4 (S241P), kappa
B3: VH3/Vκ5 (antibody, IgG4, V domains shown)
VH: B1 VH with T28I, N30S, A31S, A33G, I34M, P61A, K87R, G100D
VL: B1 VL with A28S, Y33A, P45L, W46L, V57I, Y70F, T91S, T92S
notes: IgG4 (S241P), kappa
B4: VH2/Vκ5 (antibody, IgG4, V domains shown)
VH: B1 VH with T28I, N30S, A31S, A33G, I34M, K87R, G100D
VL: B1 VL with A28S, Y33A, P45L, W46L, V57I, Y70F, T91S, T92S
notes: IgG4 (S241P), kappa
B5: VH0/Vκ0 N26Q (antibody, IgG4, name in Kabat numbering, V domains shown)
VH: EVQLVESGGDLVKPGGSLKLACAASGFIFSSHGMSWVRQTPDKRLEWVATISSGGTYTYYPDSVKGRFTISRDNDKNTLYLQMNSLKSEDTAMYYCARHDFDYDAAWFAYWGQGTLVTVSS
VL: QIVLTQSPALMSASPGVKVTMTCSAQSSVSYMYWYRQKPRSSPKPWIYLTSNLASGVPARFSGSGSGTSYSLTISSMEAEDAATYYCQQWSSNPPTFGSGTKLEIK
notes: aglycosylated chimeric, IgG4 (S241P), kappa

Experiments:
[1] = target: T1, CEACAM1 on transfected HeLa cells; assay: flow cytometry, transfected HeLa
[2] = target: T2, CEACAM5 on transfected HeLa cells; assay: flow cytometry, transfected HeLa
[3] = target: T3, CEACAM6 on transfected HeLa cells; assay: flow cytometry, transfected HeLa
[4] = target: T4, His-tagged CEACAM1; assay: SPR single-cycle, purified IgG captured
How it was run: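 On a Biacore T200, purified IgG was captured on a Series S Protein A chip, and His-tagged CEACAM1 was passed over it as the analyte in single-cycle kinetics surface plasmon resonance at 25° C in HBS-P+ (pH 7.4). Reference-channel and blank-run signals were subtracted before fitting kon, koff and Kd, with relative KD calculated against the parent antibody assayed in the same experiment.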

[5] = target: T4, His-tagged CEACAM1; assay: SPR single-cycle, supernatant IgG captured
How it was run: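 Humanized, affinity-matured IgGs from crude supernatant (0.5 μg/ml in HBS-P+) captured on Protein A to ~100 RU. Single-cycle kinetics: CEACAM1 at three concentrations, 70–280 nM two-fold, 80 μl/min, 80 s association each, 150 s dissociation. Reference-channel and blank-run subtraction applied.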

[6] = target: T5, CEACAM3 on transfected HeLa cells; assay: flow cytometry, HeLa-CEACAM3 transfectants, % staining, stacked bars
From the text: FIG. 11 illustrates the binding selectivity of different affinity-matured CEACAM1 antibodies. […] HELA cells were transfected with vector alone (HeLa-Neo) or vectors expressing CEACAM1, CEACAM3, CEACAM5, or CEACAM6, respectively, and stained with the indicated antibodies. […] MOPC=mouse IgG1 control antibody. Mouse antibodies as positive control for transfected CEACAM isoforms: Col-1=CEACAM3 and CEACAM5 antibody. 9A6=CEACAM6 antibody. T84.1=CEACAM cross-reactive antibody and T84.66=CEACAM5 antibody. Only 2nd FITC=No primary antibody, only secondary FITC conjugated antibody. […] Data for affinity-matured antibodies 9B3_8H3/Vκ8 S29A, 8H3_9B3/CP08_E05, and 8H3_9C2/CPO08_F05, as well as data for CEACAM8 antibody 80H3 were omitted from the FIG. due to an unusually high background signal.

[7] = target: T4, His-tagged CEACAM1; assay: SPR single-cycle, supernatant IgG captured; remark: listed apart in the source
How it was run: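 His-tagged CEACAM1 served as analyte over Protein A-captured IgG in single-cycle surface plasmon resonance on a Biacore T200, performed at 25° C in HBS-P+ (pH 7.4). The IgG was taken from supernatants of transiently PEI-transfected HEK EBNA cells grown in 6-well plates and harvested 5-7 days later. Relative KD, alongside fitted Kon, koff and Kd, was referenced to the parent antibody run in the same experiment.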

[8] = target: T4, His-tagged CEACAM1; assay: SPR single-cycle, IgG captured
How it was run: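 Biacore T200 single-cycle kinetics at 25° C in HBS-P+ (pH 7.4): antibodies (purified or HEK EBNA supernatant, 1 μg/ml) captured on Protein A to ~75 RU, His-tagged CEACAM1 analyte at 3.125–50 nM (5-point 2-fold) at 50 μl/min without regeneration. Reference channel Fc1 subtracted.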

[9] = target: T6, GST-CEACAM1; assay: competition ELISA vs parental murine antibody
Experimental: The binding of the purified antibodies to human CEACAM1 was assessed in a competition ELISA assay. Nunc Immuno MaxiSorp 96 well flat bottom microtitre plates were pre-coated with 1 μg/ml of GST-CEACAM1 in 1×PBS, overnight at 4° C. The following day the plates were blocked for 1 hour at room temperature (“RT”) with 2% BSA/PBS before washing 3× with PBST pH 7.4. A 3-fold dilution series of the chimeric antibody chimeric antibody VH0/Vκ0, an irrelevant IgG4 antibody, and the humanized CEACAM1 antibodies from 100 μg/ml to 0.07 or 0.002 μg/ml were pre-mixed with a constant concentration of parental murine antibody (0.45 μg/ml final concentration), added to the plate and incubated for 1 hour at room temperature. Following 3×PBST washes, the binding of the parental murine CEACAM1 antibody was detected with an anti-mouse-HRP and TMB substrate. The reaction was stopped with 3 M HCl, absorbance read at 450 nm on a Dynex Technologies MRX TC II plate reader and the binding curves plotted. The binding of the humanized CEACAM antibody variants to CEACAM1 was compared to the chimeric antibody (VHO/Vκ0), which was included on each plate.

[10] = target: T4, His-tagged CEACAM1; assay: SPR multi-cycle
How it was run: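 On a Series S Protein A chip in a Biacore T200, purified antibody at 1 μg/ml was captured to ~75 RU, and His-tagged CEACAM1 analyte flowed at 80 μl/min in 2-fold dilutions (200 to 3.125 nM or 100 to 1.5625 nM) in HBS-P+ (pH 7.4) at 25° C. Association lasted 50 or 150 seconds and dissociation 100 seconds. The resulting multi-cycle kinetic sensorgrams yielded Kon, koff, Kd and relative KD.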

Row | Molecule | relative amount of cells bound [1] | relative amount of cells bound [2] | relative amount of cells bound [3] | Kd [4] [nM] | koff [4] [s⁻¹] | kon [4] [M⁻¹ s⁻¹] | relative KD to parent [4] | binding result [6] | binding result [8] | binding result [9] | also measured
1 | irrelevant IgG4 antibody | 0.37 | 1.02 | 1.39 |  |  |  |  |  |  |  | 
2 | B1 |  |  |  | 61 | 0.007 | 110000 | 7.8 | binds |  |  | Kd [5]: 67 nM; koff [5]: 0.0078 s⁻¹; kon [5]: 120000 M⁻¹ s⁻¹; relative KD to parent [5]: 8.3
3 | B2 |  |  |  | 72 | 0.007 | 97000 | 6.6 | binds |  |  | Kd [7]: 78 nM; koff [7]: 0.0075 s⁻¹; kon [7]: 96000 M⁻¹ s⁻¹; relative KD to parent [7]: 7.1
4 | B3 |  |  |  |  |  |  |  |  | no binding (tested: 50 nM) | no binding (tested: 100 µg/ml) | 
5 | B4 |  |  |  |  |  |  |  |  | no binding (tested: 50 nM) | no binding (tested: 100 µg/ml) | 
6 | B5 | 79.9 | 15.5 | 0.18 |  |  |  |  |  |  |  | Kd [10]: 198 nM; koff [10]: 0.0299 s⁻¹; kon [10]: 151000 M⁻¹ s⁻¹; relative KD [10]: 1.89
